Data reported in the Human Domainome abundance scans (Beltran et al. 2025).
± gives the uncertainty stated by the source.

B1: POU domain, class 5, transcription factor 1, residues 134 to 212; numbered along this chain, Q01860 (parent)
chain: EESQDIKALQKELEQFAKLLKQKRITLGYTQADVGLTLGVLFGKVFSQTTICRFEALQLSFKNMCKLRPLLQKWVEEAD

Variants of: B1
Assay: abundance fitness (aPCA) (normalised: wild type 0, dead -1); higher = more abundant; growth selection in yeast, the domain comes from the species named
Conditions: Homo sapiens

Variant	abundance fitness
L9H	-0.215 ± 0.32
L9P	0.195 ± 0.12
L9Y	-0.164 ± 0.24
L9K	0.28 ± 0.11
L9S	0.136 ± 0.078
T26S	0.329 ± 0.18
T26C	-0.059 ± 0.46
Q22F	0.56 ± 0.4
K44Q	0.018 ± 0.091
A17G	0.11 ± 0.13
Q48S	0.208 ± 0.17
L36P	-0.6 ± 0.26
S60I	-0.284 ± 0.5
S60G	-0.268 ± 0.09
S60E	-0.173 ± 0.15
V75T	-0.299 ± 0.23
V75K	-0.056 ± 0.31
V75G	-0.645 ± 0.29
T50C	-0.298 ± 0.31
T50W	-0.43 ± 0.22
E14K	0.267 ± 0.14
C52L	-0.07 ± 0.31
C52A	0.424 ± 0.15
N63Y	-0.387 ± 0.5

Variant	abundance fitness
N63C	-0.31 ± 0.24
N63S	0.299 ± 0.11
N63V	-0.305 ± 0.13
K23L	-0.608 ± 0.37
E1Q	0.066 ± 0.31
F54T	0.078 ± 0.29
F54E	-0.828 ± 0.33
W74G	-0.158 ± 0.18
W74R	-0.734 ± 0.27
K62P	-0.08 ± 0.24
Q31C	0.266 ± 0.18
Q31H	-0.108 ± 0.37
Q31R	-0.469 ± 0.14
V40D	-0.621 ± 0.44
V40S	-0.026 ± 0.14
V40M	-0.087 ± 0.13
V40E	0.1 ± 0.13
Q4L	-0.067 ± 0.09
Q4D	0.046 ± 0.14
Q4P	-0.135 ± 0.12
R68T	-0.436 ± 0.19
L27W	-0.185 ± 0.11
L27K	-0.31 ± 0.19
G43C	-0.485 ± 0.41

Variant	abundance fitness
G43K	-0.516 ± 0.31
G43R	-0.613 ± 0.17
G43V	-0.585 ± 0.23
L38H	-0.313 ± 0.38
L38K	-0.603 ± 0.31
L38W	-0.214 ± 0.26
L38R	-0.511 ± 0.13
G35R	-0.32 ± 0.17
G35P	-0.452 ± 0.29
K18Q	0.029 ± 0.19
K18R	-0.222 ± 0.099
K18A	0.021 ± 0.11
K18W	-0.19 ± 0.18
K18S	0.192 ± 0.13
K18G	-0.147 ± 0.12
K21S	-0.189 ± 0.14
K21G	-0.707 ± 0.18
K21V	-0.373 ± 0.28
L57G	0.094 ± 0.078
L57W	-0.355 ± 0.17
L71V	-0.728 ± 0.17
L71R	-0.509 ± 0.11
L71M	-0.251 ± 0.13
L71Y	-0.435 ± 0.28

Variant	abundance fitness
L71D	-0.869 ± 0.42
T37I	-0.093 ± 0.18
T37K	0.082 ± 0.16
T37Q	0.394 ± 0.097
F16G	-0.522 ± 0.23
F16L	-0.133 ± 0.16
M64R	-0.871 ± 0.15
M64W	-0.667 ± 0.22
S47F	-0.094 ± 0.29
S47A	-0.379 ± 0.22
S47E	-0.228 ± 0.2
F42V	0.127 ± 0.046
D5S	-0.191 ± 0.41
D5G	-0.331 ± 0.2
K66R	-0.01 ± 0.093
D33T	-1.08 ± 0.5
D33M	-0.497 ± 0.34
D33A	-0.594 ± 0.19
L13G	-0.708 ± 0.23
L13Y	-0.527 ± 0.24
L13F	-0.149 ± 0.14
V34R	-0.637 ± 0.2
A78T	-0.014 ± 0.26
L19G	-0.063 ± 0.13

Variant	abundance fitness
S3F	-0.082 ± 0.27
L20V	-0.056 ± 0.12
L20A	-0.704 ± 0.27
I51K	-0.067 ± 0.44
V45Q	0.044 ± 0.091
V45H	0.013 ± 0.082
V45M	-0.122 ± 0.21
L70G	-0.574 ± 0.2
L70V	-0.406 ± 0.16
Q72W	-0.837 ± 0.31
Q72M	-0.31 ± 0.16
E77Q	0.184 ± 0.12
E77W	0.226 ± 0.076
E77K	-0.074 ± 0.17
E77M	0.037 ± 0.17
E12Q	-0.185 ± 0.17
E12A	-0.345 ± 0.14
E12D	-0.357 ± 0.47
E12R	-0.07 ± 0.071
Q58D	-0.03 ± 0.19
Q58K	-0.035 ± 0.2
Q10I	-0.373 ± 0.34
Q10E	-0.354 ± 0.16
Q10W	0.305 ± 0.084

Variant	abundance fitness
Q10Y	0.042 ± 0.33
F46R	-0.429 ± 0.14
F46M	0.023 ± 0.17
F46G	-0.714 ± 0.16
F46T	0.025 ± 0.2
A32L	-0.749 ± 0.27
A32G	-0.235 ± 0.1
A32R	0.066 ± 0.1
A32N	-0.193 ± 0.33
A32T	-0.06 ± 0.21
K73G	-0.386 ± 0.1
K73P	-0.506 ± 0.21
K73A	-0.131 ± 0.092
K73E	-0.595 ± 0.17
K73Q	-0.1 ± 0.14
T49E	0.186 ± 0.11
T49C	-0.524 ± 0.27
E55I	-0.365 ± 0.33
E55S	-0.418 ± 0.27
D79P	0.393 ± 0.19
L59R	-0.561 ± 0.2
L59G	-0.432 ± 0.11
L41R	-0.345 ± 0.15
L41E	-0.224 ± 0.21

Variant	abundance fitness
L41W	0.046 ± 0.14
L41A	-0.695 ± 0.38
F61Y	-0.09 ± 0.5
F61T	0.063 ± 0.17
F61W	-0.035 ± 0.091
A56C	-0.098 ± 0.19
K7Y	-0.12 ± 0.14
K7L	-0.073 ± 0.061
K7F	-0.257 ± 0.13
C65L	0.14 ± 0.077
C65S	-0.393 ± 0.15
C65K	-0.271 ± 0.22
C65Y	-0.449 ± 0.32
C65M	-0.04 ± 0.14
C65D	0.155 ± 0.16
C65A	-0.381 ± 0.13
Y29P	-0.407 ± 0.24
L67T	-0.494 ± 0.29
E76V	-0.434 ± 0.15
E76W	-0.425 ± 0.19
R24Q	-0.391 ± 0.44
R24V	-0.068 ± 0.22
R24S	-0.361 ± 0.18
